This is an account of results in publication PMC10401862, “A high-throughput dual system to screen polyphosphate kinase mutants for efficient ATP regeneration in L-theanine biocatalysis” (Biotechnology for Biofuels and Bioproducts, 2023).

Broadly, the Km is the concentration of substrate that gives half-maximal velocity. The kcat is the number of substrate molecules converted per active site and unit of time at saturation. Usually kcat/Km stands for the second-order rate constant that governs catalysis at low substrate concentration.

To fix the notation:
B1: ChPPK (Cytophaga hutchinsonii ATCC 33406) (protein)
chain: MATDFSKLSKYVETLRVKPKQSIDLKKDFDTDYDHKMLTKEEGEELLNLGISKLSEIQEKLYASGTKSVLIVFQAMDAAGKDGTVKHIMTGLNPQGVKVTSFKVPSKIELSHDYLWRHYVALPATGEIGIFNRSHYENVLVTRVHPEYLLSEQTSGVTAIEQVNQKFWDKRFQQINNFEQHISENGTIVLKFFLHVSKKEQKKRFIERIELDTKNWKFSTGDLKERAHWKDYRNAYEDMLANTSTKQAPWFVIPADDKWFTRLLIAEIICTELEKLNLTFPTVSLEQKAELEKAKAELVAEKSSD
notes: synthesized gene expressed in E. coli BL21(DE3) from pXMJ-19, Ni-NTA purified
B2: ChPPK (Cytophaga hutchinsonii ATCC 33406; D82N) (protein)
chain: MATDFSKLSKYVETLRVKPKQSIDLKKDFDTDYDHKMLTKEEGEELLNLGISKLSEIQEKLYASGTKSVLIVFQAMDAAGKNGTVKHIMTGLNPQGVKVTSFKVPSKIELSHDYLWRHYVALPATGEIGIFNRSHYENVLVTRVHPEYLLSEQTSGVTAIEQVNQKFWDKRFQQINNFEQHISENGTIVLKFFLHVSKKEQKKRFIERIELDTKNWKFSTGDLKERAHWKDYRNAYEDMLANTSTKQAPWFVIPADDKWFTRLLIAEIICTELEKLNLTFPTVSLEQKAELEKAKAELVAEKSSD
notes: as for B1
B3: ChPPK (Cytophaga hutchinsonii ATCC 33406; K103E) (protein)
chain: MATDFSKLSKYVETLRVKPKQSIDLKKDFDTDYDHKMLTKEEGEELLNLGISKLSEIQEKLYASGTKSVLIVFQAMDAAGKDGTVKHIMTGLNPQGVKVTSFEVPSKIELSHDYLWRHYVALPATGEIGIFNRSHYENVLVTRVHPEYLLSEQTSGVTAIEQVNQKFWDKRFQQINNFEQHISENGTIVLKFFLHVSKKEQKKRFIERIELDTKNWKFSTGDLKERAHWKDYRNAYEDMLANTSTKQAPWFVIPADDKWFTRLLIAEIICTELEKLNLTFPTVSLEQKAELEKAKAELVAEKSSD
notes: as for B1

Substrate in this series: Nc1ncnc2c1ncn2[C@@H]1O[C@H](COP(=O)(O)OP(=O)(O)O)[C@@H](O)[C@H]1O
Nature of the series: purified protein. To be noted: 100 mM Tris-HCl pH 8.0, 35 °C, MgCl2, ADP 0.1 to 5 mM, polyP6 as co-substrate. The series is classed as biochemical, Cytophaga hutchinsonii.
In the case of B1, the Michaelis-Menten constant (Km) is 1.39 ± 0.07 mM, the kcat was 10 ± 0.13 s⁻¹ and the specificity constant (kcat/Km) is 7220 M⁻¹ s⁻¹.

Take B2: the Km worked out at 0.95 ± 0.03 mM, the kcat worked out at 15.05 ± 0.04 s⁻¹ and the kcat/Km came out at 15800 M⁻¹ s⁻¹.

Turning to B3, the Km came to 0.81 ± 0.12 mM, the kcat was determined as 19.69 ± 0.12 s⁻¹ and the kcat/Km came to 24300 M⁻¹ s⁻¹.
